B1: truncated P2X7-j receptor protein (receptor)
chain: MPACCSCSDVFQYETNKVTRIQSMNYGTIKWFFHVIIFSYVCFALVSDKLYQRKEPVISSVHTKVKGIAEVKEEIVENGVKKLVHSVFDTADYTFPLQGNSFFVMTNFLKTEGQEQRLCPEYPTRRTLCSSDRGCKKGWMDPQSKGIQTGRCVVHEGNQKTCEVSAWCPIEAVEEAPRPALLNSAENFTVLIKNNIDFPGHNYTTRNILPGLNITCTFHKTQNPQCPIFRLGDIFRETGDNFSDVAIQIRQVLQGKQC
notes: Untagged P2X7-j, expressed in HEK-293 cells or endogenous in human cancer cell lines; Runs as 42-45 kDa bands; also called P2X7-RTR
B2: full-length human P2X7 receptor (receptor)
chain: MPACCSCSDVFQYETNKVTRIQSMNYGTIKWFFHVIIFSYVCFALVSDKLYQRKEPVISSVHTKVKGIAEVKEEIVENGVKKLVHSVFDTADYTFPLQGNSFFVMTNFLKTEGQEQRLCPEYPTRRTLCSSDRGCKKGWMDPQSKGIQTGRCVVHEGNQKTCEVSAWCPIEAVEEAPRPALLNSAENFTVLIKNNIDFPGHNYTTRNILPGLNITCTFHKTQNPQCPIFRLGDIFRETGDNFSDVAIQGGIMGIEIYWDCNLDRWFHHCHPKYSFRRLDDKTTNVSLYPGYNFRYAKYYKENNVEKRTLIKVFGIRFDILVFGTGGKFDIIQLVVYIGSTLSYFGLAAVFIDFLIDTYSSNCCRSHIYPWCKCCQPCVVNEYYYRKKCESIVEPKPTLKYVSFVDESHIRMVNQQLLGRSLQDVKGQEVPRPAMDFTDLSRLPLALHDTPPIPGQPEEIQLLRKEATPRSRDSPVWCQCGSCLPSQLPESHRCLEELCCRKKPGACITTSELFRKLVLSRHVLQFLLLYQEPLLALDVDSTNSRLRHCAYRCYATWRFGSQDMADFAILPSCCRWRIRKEFPKSEGQYSGFKSPY
notes: Expressed from cDNA in HEK-293 cells or endogenous in human cells and tissues (CaSki, HeLa, cervical tissue); Mostly assayed in cell extracts on immunoblots, where it runs as 65, 75 and 85 kDa forms; also called P2X7-RFL; P2X7-WT

Columns and labels:
Assay in all cases: densitometry of oligomer bands on an immunoblot, HEK293 cells co-expressing P2X7 and P2X7-j
[1] = target: the molecule itself
[2] = target: B2
[3] = target: B1

| Binder | relative band density (ratio) [1] | relative band density (ratio) [2] | relative band density (ratio) [3] |
| --- | --- | --- | --- |
| B1 | 70 ratio parts | 15 ratio parts |  |
| B2 | 10 ratio parts |  | 5 ratio parts |

— patent US20070020706A1 (UNIVERSITY HOSPITALS OF CLEVELAND, published 2007)
